# Laboratory results reported in US20250304666A1 (ALCHEMAB THERAPEUTICS, published 2025).
# T1: reduced CFHR2 (UniProt P36980 19-270, limits assumed)
# T1 sequence (looked up): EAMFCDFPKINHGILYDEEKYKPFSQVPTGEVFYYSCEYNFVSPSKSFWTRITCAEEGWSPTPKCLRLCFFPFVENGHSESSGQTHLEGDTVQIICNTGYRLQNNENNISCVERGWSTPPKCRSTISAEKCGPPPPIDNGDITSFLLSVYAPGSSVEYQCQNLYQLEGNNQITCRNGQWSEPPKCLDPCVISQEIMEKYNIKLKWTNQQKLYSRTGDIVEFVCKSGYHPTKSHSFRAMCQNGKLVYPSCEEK
# T2: reduced CFHR3 (UniProt Q02985 19-330, limits assumed)
# T2 sequence (looked up): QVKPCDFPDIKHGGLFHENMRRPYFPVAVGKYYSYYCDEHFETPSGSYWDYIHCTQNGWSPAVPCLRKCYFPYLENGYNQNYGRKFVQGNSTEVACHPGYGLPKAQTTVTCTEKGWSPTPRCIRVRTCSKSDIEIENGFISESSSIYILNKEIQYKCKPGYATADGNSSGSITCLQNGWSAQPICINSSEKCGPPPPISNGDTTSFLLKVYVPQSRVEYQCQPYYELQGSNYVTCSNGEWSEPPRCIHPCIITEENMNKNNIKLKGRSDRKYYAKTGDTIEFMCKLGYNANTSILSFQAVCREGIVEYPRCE
# T3: reduced CFH (Homo sapiens (Human), UniProt P08603 860-1231, limits assumed)
# T3 construct: also called CFH (reduced)
# T3 sequence: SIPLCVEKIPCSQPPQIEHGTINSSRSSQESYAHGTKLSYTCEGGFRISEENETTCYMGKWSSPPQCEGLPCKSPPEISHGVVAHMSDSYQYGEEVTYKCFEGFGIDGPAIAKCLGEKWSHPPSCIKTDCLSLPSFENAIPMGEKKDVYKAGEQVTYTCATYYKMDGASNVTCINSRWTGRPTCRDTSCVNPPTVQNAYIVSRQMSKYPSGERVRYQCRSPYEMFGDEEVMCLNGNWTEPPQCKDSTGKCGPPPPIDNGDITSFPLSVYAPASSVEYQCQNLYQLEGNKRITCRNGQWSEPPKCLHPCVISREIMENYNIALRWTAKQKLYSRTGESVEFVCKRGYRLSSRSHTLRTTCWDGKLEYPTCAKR
# Experiments:
# reduced CFHR2 = target: T1, reduced CFHR2; assay: ELISA, reduced antigen
# reduced CFHR3 = target: T2, reduced CFHR3; assay: ELISA, reduced antigen
# reduced CFH [1] = target: T3, reduced CFH; assay: ELISA, reduced antigen
# reduced CFH [2] = target: T3, reduced CFH; assay: direct ELISA on reduced CFH
# reduced CFH [3] = target: T3, reduced CFH; assay: ELISA on reduced CFH after heating the mAb (70 C, 1 h, as Figure 16)
# [4] = target: T4, immobilised biotinylated full-length CFH (reduced) (Homo sapiens (Human), UniProt P08603 19-1231, biotinylated; reduced with 20 mM dithiothreitol); assay: BLI (Octet), biotinylated reduced CFH on streptavidin sensors, antibody 33.3-2.08 nM as analyte, 1:1 global fit; lower end of the printed KD range
# T4 construct: Purified endogenous full-length CFH immobilised by biotin on streptavidin BLI sensors; also called immobilised CFH; surface immobilised CFH
# Description: Biolayer interferometry (BLI, Octet 96Red) was used to measure binding kinetics of the interactions between anti-CFH antibodies and CFH. The CFH used for kinetics measurements was purified endogenous CFH was biotinylated and reduced with 20 mM dithiothreitol (DTT). An irrelevant protein was treated in the same way as a negative control reference. The CFH or irrelevant control ligands were each immobilised via the conjugated biotin onto a set of streptavidin (SA) sensor tips. Sensors were dipped into reference kinetics buffer (Phosphate buffered saline (PBS), pH 7.4, 0.05% Tween-20, 2% w/v not fat milk powder) to achieve a steady baseline. Association was measured over 300 s by dipping the sensors into an analyte concentration series of anti-CFH antibody (33.3-2.08 nM in kinetics buffer) as well as a no analyte control (kinetics buffer only). Dissociation was measured over 1500 s by dipping the sensors into kinetics buffer only. Baseline, association and dissociation steps were all measured with sensors shaking at 800 rpm and at a temperature of 23° C. Data was analysed with Data Analysis HT 11.1.0.25 software. Data from reference sensors and analyte control were subtracted. Data was corrected by aligning y-axis to average of baseline 5 s before association, inter step correction aligned to start of baseline and using Savitzky-Golay filtering. […]
fold change vs isotype at 1 ug/ml (reduced CFHR2),binding result (reduced CFHR3),fold change vs isotype at 1 ug/ml (reduced CFHR3),fold change vs isotype at 1 ug/ml (reduced CFH [1]),EC50 (read off the curve) (reduced CFH [2]),Harsh Heat challenge ELISA value (reduced CFH [3]),Kd [4],Binder
10.7 fold,no binding (tested: 1 ug/ml),0.9 fold,17.6 fold,~0.1 nM,0.04,,"ATL4717 (antibody, human IgG1, kappa, V domains shown, Human IgG1; also called ATL0004717; ATL04717) VH: QVQLVESGGGMVQPGRSLRLSCAASGFTFSIYGMHWVRQAPGRGLEWVAVMSFDGKTKYYADSVKGRFTISRDNSKNTLYLQMNSLRRVDTAVYYCAKGGATAAVFDSWGQGTLVTVSS VL: not shown"
8.4 fold,,1 fold,18.1 fold,,0.49,0.402 to 1.46 nM,"ATL5170 (antibody, human IgG1, kappa, V domains shown, IgG1; also called ATL_0005170) VH: QVQLVESGGGVVQPGRSLRLSCAASGFTFSNYGMHWVRQAPGKGLEWVAVTSFDGKTKYYADSVKGRFTISRDNSKNTLYLQMNSLRAEDTAVYYCAKGGATAAVLDSWGQGTLVTVSS VL: not shown"
